Data published in PMC3921101.

Biological target: L-selectin (CD62L) on Jurkat T cells (human (endogenous in Jurkat)) (UniProt P14151)
Assay: flow cytometry on cells

Chain of UniProt P14151 (P14151 39-372): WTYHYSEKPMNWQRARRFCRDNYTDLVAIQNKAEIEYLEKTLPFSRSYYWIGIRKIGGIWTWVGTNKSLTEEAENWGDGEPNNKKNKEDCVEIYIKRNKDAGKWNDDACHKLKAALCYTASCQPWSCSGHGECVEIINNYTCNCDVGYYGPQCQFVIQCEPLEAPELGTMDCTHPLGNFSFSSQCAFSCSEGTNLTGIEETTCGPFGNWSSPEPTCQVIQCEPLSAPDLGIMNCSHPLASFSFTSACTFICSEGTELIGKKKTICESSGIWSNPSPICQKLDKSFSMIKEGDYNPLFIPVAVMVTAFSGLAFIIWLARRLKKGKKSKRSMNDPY

| fold binding (MFI) with DREG-55 mAb, relative to the DREG-200 mAb sample [fold] | Substance |
| --- | --- |
| 1.4 | Human E-selectin-Fc chimera (from UniProt P16581 22-556) (Fc fusion) |
| 1.6 | Human PSGL-1-Fc chimera (from UniProt Q14242 42-320) (Fc fusion) |
